Assay results taken from PMC13397619.

B1: NLV3 TCR beta chain (CDR3β only) (parent)
chain: ASSPTGGSPSPLH
partner: NLCPMVATV

Variants of: B1
Experiment: T-Switch: Jurkat TCRβ−/− cells expressing a CDR3 saturation-mutagenesis library, stained with two peptide-HLA-A*02:01 tetramers (original and novel peptide) plus anti-CD3, FACS-sorted into four gates, gDNA sequenced
Conditions: with HLA-A*02:01 with peptide … (NLV 2-1, the novel peptide), tetramers 1 µg/mL, 30 min on ice, SP, DP and SW gates expanded about 10 days between rounds ('two to three rounds of selection' in the Methods), gate SW: higher = more of the variant in the gate that binds the novel peptide and not the original one = switched binding. Fold enrichment of the CDR3 variant in one FACS gate of a two-tetramer stain, unresolved parent, parent is a CDR3 fragment, scale: fold enrichment, numbering: sequential-on-construct, sequence starts at 1

Row | Variant | enrichment
1 | […] (CDR3 as printed); H13A derived by comparing it with the table's wild-type CDR3 ASSPTGGSPSPLH | 0
2 | […] (CDR3 as printed); S8T derived by comparing it with the table's wild-type CDR3 ASSPTGGSPSPLH | 0
3 | […] (CDR3 as printed); G6P derived by comparing it with the table's wild-type CDR3 ASSPTGGSPSPLH | 0
4 | […] (CDR3 as printed); L12D derived by comparing it with the table's wild-type CDR3 ASSPTGGSPSPLH | 0
5 | […] (CDR3 as printed); T5N derived by comparing it with the table's wild-type CDR3 ASSPTGGSPSPLH | 0
6 | […] (CDR3 as printed); P4W derived by comparing it with the table's wild-type CDR3 ASSPTGGSPSPLH | 0
7 | […] (CDR3 as printed); H13T derived by comparing it with the table's wild-type CDR3 ASSPTGGSPSPLH | 0
8 | […] (CDR3 as printed); S2G derived by comparing it with the table's wild-type CDR3 ASSPTGGSPSPLH | 0
9 | […] (CDR3 as printed); P4K derived by comparing it with the table's wild-type CDR3 ASSPTGGSPSPLH | 0
10 | […] (CDR3 as printed); G6W derived by comparing it with the table's wild-type CDR3 ASSPTGGSPSPLH | 0
11 | […] (CDR3 as printed); G6E derived by comparing it with the table's wild-type CDR3 ASSPTGGSPSPLH | 0
12 | […] (CDR3 as printed); S10P derived by comparing it with the table's wild-type CDR3 ASSPTGGSPSPLH | 0
13 | […] (CDR3 as printed); P4L derived by comparing it with the table's wild-type CDR3 ASSPTGGSPSPLH | 0
14 | […] (CDR3 as printed); G6S derived by comparing it with the table's wild-type CDR3 ASSPTGGSPSPLH | 0
15 | […] (CDR3 as printed); L12Y derived by comparing it with the table's wild-type CDR3 ASSPTGGSPSPLH | 0
16 | […] (CDR3 as printed); T5L derived by comparing it with the table's wild-type CDR3 ASSPTGGSPSPLH | 0
17 | […] (CDR3 as printed); S3L derived by comparing it with the table's wild-type CDR3 ASSPTGGSPSPLH | 0
18 | […] (CDR3 as printed); H13L derived by comparing it with the table's wild-type CDR3 ASSPTGGSPSPLH | 0
19 | […] (CDR3 as printed); S2C derived by comparing it with the table's wild-type CDR3 ASSPTGGSPSPLH | 0
20 | […] (CDR3 as printed); P11W derived by comparing it with the table's wild-type CDR3 ASSPTGGSPSPLH | 0
21 | […] (CDR3 as printed); T5P derived by comparing it with the table's wild-type CDR3 ASSPTGGSPSPLH | 0

Row | Variant | enrichment
22 | […] (CDR3 as printed); S8M derived by comparing it with the table's wild-type CDR3 ASSPTGGSPSPLH | 0
23 | […] (CDR3 as printed); S8R derived by comparing it with the table's wild-type CDR3 ASSPTGGSPSPLH | 0
24 | […] (CDR3 as printed); S2A derived by comparing it with the table's wild-type CDR3 ASSPTGGSPSPLH | 0
25 | […] (CDR3 as printed); S8A derived by comparing it with the table's wild-type CDR3 ASSPTGGSPSPLH | 0
26 | […] (CDR3 as printed); S2Y derived by comparing it with the table's wild-type CDR3 ASSPTGGSPSPLH | 0
27 | […] (CDR3 as printed); G7F derived by comparing it with the table's wild-type CDR3 ASSPTGGSPSPLH | 0
28 | […] (CDR3 as printed); P9H derived by comparing it with the table's wild-type CDR3 ASSPTGGSPSPLH | 0
29 | […] (CDR3 as printed); S3V derived by comparing it with the table's wild-type CDR3 ASSPTGGSPSPLH | 0
30 | […] (CDR3 as printed); P9L derived by comparing it with the table's wild-type CDR3 ASSPTGGSPSPLH | 0
31 | […] (CDR3 as printed); S8G derived by comparing it with the table's wild-type CDR3 ASSPTGGSPSPLH | 0
32 | […] (CDR3 as printed); G6D derived by comparing it with the table's wild-type CDR3 ASSPTGGSPSPLH | 0
33 | […] (CDR3 as printed); T5I derived by comparing it with the table's wild-type CDR3 ASSPTGGSPSPLH | 0
34 | […] (CDR3 as printed); S3C derived by comparing it with the table's wild-type CDR3 ASSPTGGSPSPLH | 0
35 | […] (CDR3 as printed); P11D derived by comparing it with the table's wild-type CDR3 ASSPTGGSPSPLH | 0
36 | […] (CDR3 as printed); P11L derived by comparing it with the table's wild-type CDR3 ASSPTGGSPSPLH | 0
37 | […] (CDR3 as printed); G7A derived by comparing it with the table's wild-type CDR3 ASSPTGGSPSPLH | 0
38 | […] (CDR3 as printed); S10I derived by comparing it with the table's wild-type CDR3 ASSPTGGSPSPLH | 0
39 | […] (CDR3 as printed); T5R derived by comparing it with the table's wild-type CDR3 ASSPTGGSPSPLH | 0
40 | […] (CDR3 as printed); P4R derived by comparing it with the table's wild-type CDR3 ASSPTGGSPSPLH | 0
41 | […] (CDR3 as printed); G7S derived by comparing it with the table's wild-type CDR3 ASSPTGGSPSPLH | 0
42 | […] (CDR3 as printed); G7H derived by comparing it with the table's wild-type CDR3 ASSPTGGSPSPLH | 0

Row | Variant | enrichment
43 | […] (CDR3 as printed); G7W derived by comparing it with the table's wild-type CDR3 ASSPTGGSPSPLH | 0
44 | […] (CDR3 as printed); S2I derived by comparing it with the table's wild-type CDR3 ASSPTGGSPSPLH | 0
45 | […] (CDR3 as printed); A1F derived by comparing it with the table's wild-type CDR3 ASSPTGGSPSPLH | 0
46 | […] (CDR3 as printed); S3K derived by comparing it with the table's wild-type CDR3 ASSPTGGSPSPLH | 0
47 | […] (CDR3 as printed); A1C derived by comparing it with the table's wild-type CDR3 ASSPTGGSPSPLH | 0
48 | […] (CDR3 as printed); S3A derived by comparing it with the table's wild-type CDR3 ASSPTGGSPSPLH | 0
49 | […] (CDR3 as printed); H13Y derived by comparing it with the table's wild-type CDR3 ASSPTGGSPSPLH | 0
50 | […] (CDR3 as printed); T5W derived by comparing it with the table's wild-type CDR3 ASSPTGGSPSPLH | 0
51 | […] (CDR3 as printed); G6M derived by comparing it with the table's wild-type CDR3 ASSPTGGSPSPLH | 0
52 | […] (CDR3 as printed); T5F derived by comparing it with the table's wild-type CDR3 ASSPTGGSPSPLH | 0
53 | […] (CDR3 as printed); S3D derived by comparing it with the table's wild-type CDR3 ASSPTGGSPSPLH | 0
54 | […] (CDR3 as printed); P11Y derived by comparing it with the table's wild-type CDR3 ASSPTGGSPSPLH | 0
55 | […] (CDR3 as printed); P11T derived by comparing it with the table's wild-type CDR3 ASSPTGGSPSPLH | 0
56 | […] (CDR3 as printed); S8Q derived by comparing it with the table's wild-type CDR3 ASSPTGGSPSPLH | 0
57 | […] (CDR3 as printed); T5G derived by comparing it with the table's wild-type CDR3 ASSPTGGSPSPLH | 0
58 | […] (CDR3 as printed); L12C derived by comparing it with the table's wild-type CDR3 ASSPTGGSPSPLH | 0
59 | […] (CDR3 as printed); S10T derived by comparing it with the table's wild-type CDR3 ASSPTGGSPSPLH | 0
60 | […] (CDR3 as printed); S10R derived by comparing it with the table's wild-type CDR3 ASSPTGGSPSPLH | 0
61 | […] (CDR3 as printed); P9V derived by comparing it with the table's wild-type CDR3 ASSPTGGSPSPLH | 0
62 | […] (CDR3 as printed); S8V derived by comparing it with the table's wild-type CDR3 ASSPTGGSPSPLH | 0
63 | […] (CDR3 as printed); H13F derived by comparing it with the table's wild-type CDR3 ASSPTGGSPSPLH | 0

Row | Variant | enrichment
64 | […] (CDR3 as printed); P11V derived by comparing it with the table's wild-type CDR3 ASSPTGGSPSPLH | 0
65 | […] (CDR3 as printed); H13D derived by comparing it with the table's wild-type CDR3 ASSPTGGSPSPLH | 0
66 | […] (CDR3 as printed); S3I derived by comparing it with the table's wild-type CDR3 ASSPTGGSPSPLH | 0
67 | […] (CDR3 as printed); P9K derived by comparing it with the table's wild-type CDR3 ASSPTGGSPSPLH | 0
68 | […] (CDR3 as printed); S10M derived by comparing it with the table's wild-type CDR3 ASSPTGGSPSPLH | 0
69 | […] (CDR3 as printed); L12N derived by comparing it with the table's wild-type CDR3 ASSPTGGSPSPLH | 0
70 | […] (CDR3 as printed); S10V derived by comparing it with the table's wild-type CDR3 ASSPTGGSPSPLH | 0
71 | […] (CDR3 as printed); S10C derived by comparing it with the table's wild-type CDR3 ASSPTGGSPSPLH | 0
72 | […] (CDR3 as printed); P9G derived by comparing it with the table's wild-type CDR3 ASSPTGGSPSPLH | 0
73 | […] (CDR3 as printed); H13M derived by comparing it with the table's wild-type CDR3 ASSPTGGSPSPLH | 0
74 | […] (CDR3 as printed); P11I derived by comparing it with the table's wild-type CDR3 ASSPTGGSPSPLH | 0
75 | […] (CDR3 as printed); G6L derived by comparing it with the table's wild-type CDR3 ASSPTGGSPSPLH | 0
76 | […] (CDR3 as printed); S3M derived by comparing it with the table's wild-type CDR3 ASSPTGGSPSPLH | 0
77 | […] (CDR3 as printed); S3T derived by comparing it with the table's wild-type CDR3 ASSPTGGSPSPLH | 0
78 | […] (CDR3 as printed); G6A derived by comparing it with the table's wild-type CDR3 ASSPTGGSPSPLH | 0
79 | […] (CDR3 as printed); P9C derived by comparing it with the table's wild-type CDR3 ASSPTGGSPSPLH | 0
80 | […] (CDR3 as printed); G7I derived by comparing it with the table's wild-type CDR3 ASSPTGGSPSPLH | 0
81 | […] (CDR3 as printed); P4H derived by comparing it with the table's wild-type CDR3 ASSPTGGSPSPLH | 0
82 | […] (CDR3 as printed); L12F derived by comparing it with the table's wild-type CDR3 ASSPTGGSPSPLH | 0
83 | […] (CDR3 as printed); P11F derived by comparing it with the table's wild-type CDR3 ASSPTGGSPSPLH | 0

Same assay, conditions: with HLA-A*02:01 with peptide … (NLV 2-1, the novel peptide), tetramers 1 µg/mL, 30 min on ice, SP, DP and SW gates expanded about 10 days between rounds ('two to three rounds of selection' in the Methods), gate SW: higher = more of the variant in the gate that binds the novel peptide and not the original one = switched binding. Fold enrichment of the CDR3 variant in one FACS gate of a two-tetramer stain, unresolved parent, parent is a CDR3 fragment, zero in all gates, scale: fold enrichment, numbering: sequential-on-construct, …

Row | Variant | enrichment
84 | […] (CDR3 as printed); G7P derived by comparing it with the table's wild-type CDR3 ASSPTGGSPSPLH | 0
